Data published in PMC8810855 (2022).
Values belong to the binder of their own block, whether it stands above or below them.

Assays:
[1] = target: T1, Arp2/3 complex (bovine brain) (bovine, UniProt P61157 1-418; A7MB62 1-394; Q58CQ2 1-372; Q3MHR7 1-300; Q3T035 1-178; Q148J6 …); experiment: ITC; ATP
[2] = target: T1, Arp2/3 complex (bovine brain); experiment: ITC; ATP; high-affinity site (Kd1)
[3] = target: T1, Arp2/3 complex (bovine brain); experiment: ITC; ATP; second, low-affinity site (Kd2)

- Kd [1]: 1710 nM
B1: Arpin_CA (Arpin residues S194-D226) (domain or fragment)
chain: SWTDNIMAQKSSKGAAAEIREQGDGAEDEEWDD

- Kd [2]: 36.7 nM
- Kd [3]: 826 nM
B2: Hybrid_WH2_C-helix (N-WASP WH2 domain and C-helix with linker and A domain of Arpin) (other)
chain: PVSCSGRDALLDQIRQGIQLKSVADGQESTPPTPAPTSGIVGALMEVMQKRSKAIAAAEIREQGDGAEDEEWDD
